We go through 1 molecule from publication PMC6053440, “Cellular stress induces erythrocyte assembly on intravascular von Willebrand factor strings and promotes microangiopathy” (Scientific Reports, 2018).

This assay deals with T1, von Willebrand factor, human plasmatic (human, UniProt P04275 764-2813).
T1 construct: von Willebrand factor, human, from plasma; multimeric glycoprotein; Multimer of disulfide-linked subunits; The results call the VWF of the ELISA recombinant, but the methods name plasmatic VWF; also called VWF; plasmatic VWF; source: bought: Calbiochem (human plasmatic VWF)
T1 sequence (P04275 764-2813): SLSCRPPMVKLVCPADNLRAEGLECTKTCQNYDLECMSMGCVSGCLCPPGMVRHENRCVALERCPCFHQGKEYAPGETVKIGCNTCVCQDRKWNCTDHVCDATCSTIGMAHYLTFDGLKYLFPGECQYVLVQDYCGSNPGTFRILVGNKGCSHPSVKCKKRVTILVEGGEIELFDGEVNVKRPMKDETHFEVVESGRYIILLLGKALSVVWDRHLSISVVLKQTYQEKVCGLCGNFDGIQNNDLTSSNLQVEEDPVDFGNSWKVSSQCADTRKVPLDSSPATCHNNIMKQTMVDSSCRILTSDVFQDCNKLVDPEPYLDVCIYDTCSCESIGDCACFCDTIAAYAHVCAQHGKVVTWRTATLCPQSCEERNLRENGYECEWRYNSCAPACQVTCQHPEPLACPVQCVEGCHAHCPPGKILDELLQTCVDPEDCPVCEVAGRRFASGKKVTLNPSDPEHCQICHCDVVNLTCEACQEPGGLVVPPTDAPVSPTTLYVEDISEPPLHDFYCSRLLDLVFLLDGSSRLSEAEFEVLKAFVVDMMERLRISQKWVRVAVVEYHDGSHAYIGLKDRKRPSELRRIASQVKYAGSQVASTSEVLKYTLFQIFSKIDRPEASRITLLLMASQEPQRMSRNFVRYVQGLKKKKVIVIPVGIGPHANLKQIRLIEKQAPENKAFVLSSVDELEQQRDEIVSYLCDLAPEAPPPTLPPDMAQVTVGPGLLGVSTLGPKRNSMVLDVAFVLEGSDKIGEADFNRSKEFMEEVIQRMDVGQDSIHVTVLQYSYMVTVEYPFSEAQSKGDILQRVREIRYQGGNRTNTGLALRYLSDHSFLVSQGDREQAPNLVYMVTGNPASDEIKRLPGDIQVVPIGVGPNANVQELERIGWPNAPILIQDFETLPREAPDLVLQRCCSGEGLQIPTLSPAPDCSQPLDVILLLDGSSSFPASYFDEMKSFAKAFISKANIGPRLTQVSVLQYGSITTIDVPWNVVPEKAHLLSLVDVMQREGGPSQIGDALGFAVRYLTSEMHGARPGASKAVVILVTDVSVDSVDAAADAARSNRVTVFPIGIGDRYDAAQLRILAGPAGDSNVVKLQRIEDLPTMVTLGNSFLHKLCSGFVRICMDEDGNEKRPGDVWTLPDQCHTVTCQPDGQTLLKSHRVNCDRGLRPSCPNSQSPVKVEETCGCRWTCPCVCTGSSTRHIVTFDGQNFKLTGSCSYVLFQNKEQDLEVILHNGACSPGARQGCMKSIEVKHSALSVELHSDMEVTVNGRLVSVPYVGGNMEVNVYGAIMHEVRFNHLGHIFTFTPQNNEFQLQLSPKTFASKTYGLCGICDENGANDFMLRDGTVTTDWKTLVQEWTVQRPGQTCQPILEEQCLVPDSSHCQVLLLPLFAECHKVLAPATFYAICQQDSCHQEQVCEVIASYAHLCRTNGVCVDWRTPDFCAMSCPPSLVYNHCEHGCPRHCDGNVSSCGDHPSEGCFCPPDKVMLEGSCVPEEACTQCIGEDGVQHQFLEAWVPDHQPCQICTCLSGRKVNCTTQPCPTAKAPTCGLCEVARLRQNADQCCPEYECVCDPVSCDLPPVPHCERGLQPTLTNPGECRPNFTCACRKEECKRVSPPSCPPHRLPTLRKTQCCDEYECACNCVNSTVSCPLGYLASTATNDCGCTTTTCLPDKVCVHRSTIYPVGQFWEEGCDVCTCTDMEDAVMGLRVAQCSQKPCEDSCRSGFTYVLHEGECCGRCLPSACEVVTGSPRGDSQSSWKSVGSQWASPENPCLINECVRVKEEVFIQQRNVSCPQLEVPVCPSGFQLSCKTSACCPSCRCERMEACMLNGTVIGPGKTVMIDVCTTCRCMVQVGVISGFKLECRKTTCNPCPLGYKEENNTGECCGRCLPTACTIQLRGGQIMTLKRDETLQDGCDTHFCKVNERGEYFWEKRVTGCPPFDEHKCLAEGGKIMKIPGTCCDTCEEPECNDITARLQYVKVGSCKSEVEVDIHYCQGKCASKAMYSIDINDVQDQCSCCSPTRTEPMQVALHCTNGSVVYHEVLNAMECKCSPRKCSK
Kind of assay: ELISA; 96-well plates coated with 20 µg/ml AV; human plasmatic VWF added at 0.15, 0.5, 1.0 and 1.5 µg/ml; bound VWF detected colorimetrically with peroxidase-labelled anti-human VWF antibody; washing with calcium-free buffer. Particulars: both partners purified. On the technique in general: ELISA stands for enzyme-linked immunosorbent assay.

B1: Annexin V (natural protein, human, UniProt P08758 1-320, looked up)
chain: MAQVLRGTVTDFPGFDERADAETLRKAMKGLGTDEESILTLLTSRSNAQRQEISAAFKTLFGRDLLDDLKSELTGKFEKLIVALMKPSRLYDAYELKHALKGAGTNEKVLTEIIASRTPEELRAIKQVYEEEYGSSLEDDVVGDTSGYYQRMLVVLLQANRDPDAGIDEAQVEQDAQALFQAGELKWGTDEEKFITIFGTRSVSHLRKVFDKYMTISGFQIEETIDRETSGNLEQLLLAVVKSIRSIPAYLAETLYYAMKGAGTDDHTLIRVMVSRSEIDLFNIRKEFRKNFATSLYSMIKGDTSGDYKKALLLLCGEDD
notes: Annexin V (annexin A5), human, purified from placenta; The methods of the ELISA name AV purified from human placenta (Sigma-Aldrich), but the results call it recombinant AV; In the flow adhesion experiments purified recombinant AV (BD Biosciences, 10 µg/ml) was added, and the erythrocytes' own AV was also present; also called AV; source: bought: Sigma-Aldrich, purified AV from human placenta
With B1, the binding result is recorded as “binds”.
